Data from paper PMC11847480.

Target: gp130 (human (endogenous in TF-1)) (UniProt P40189)
Sequence (P40189 23-918): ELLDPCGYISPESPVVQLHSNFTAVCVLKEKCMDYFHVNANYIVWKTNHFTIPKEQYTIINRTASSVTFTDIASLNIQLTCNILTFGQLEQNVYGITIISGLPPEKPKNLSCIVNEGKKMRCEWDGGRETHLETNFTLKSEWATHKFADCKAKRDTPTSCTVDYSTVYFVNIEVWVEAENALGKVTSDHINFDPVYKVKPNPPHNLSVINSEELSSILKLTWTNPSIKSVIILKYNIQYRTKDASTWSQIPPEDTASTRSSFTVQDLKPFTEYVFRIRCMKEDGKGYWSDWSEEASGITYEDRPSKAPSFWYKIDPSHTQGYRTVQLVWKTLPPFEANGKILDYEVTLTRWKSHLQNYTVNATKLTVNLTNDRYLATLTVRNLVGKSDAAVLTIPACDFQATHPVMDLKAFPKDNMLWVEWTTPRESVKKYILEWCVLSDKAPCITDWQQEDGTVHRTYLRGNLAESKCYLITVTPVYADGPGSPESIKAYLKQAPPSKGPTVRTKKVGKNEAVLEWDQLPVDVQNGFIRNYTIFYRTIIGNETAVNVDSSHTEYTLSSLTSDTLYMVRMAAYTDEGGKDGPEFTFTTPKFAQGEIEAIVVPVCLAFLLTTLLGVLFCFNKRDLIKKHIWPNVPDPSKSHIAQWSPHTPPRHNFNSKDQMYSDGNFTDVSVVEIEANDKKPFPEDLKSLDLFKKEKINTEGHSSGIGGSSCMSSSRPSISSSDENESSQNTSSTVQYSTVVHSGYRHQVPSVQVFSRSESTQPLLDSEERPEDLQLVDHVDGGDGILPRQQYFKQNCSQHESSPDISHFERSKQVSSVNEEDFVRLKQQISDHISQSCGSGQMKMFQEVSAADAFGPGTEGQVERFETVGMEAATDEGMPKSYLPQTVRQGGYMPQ

Sequence of LIF with truncation of the N-terminal region (P15018 23-202): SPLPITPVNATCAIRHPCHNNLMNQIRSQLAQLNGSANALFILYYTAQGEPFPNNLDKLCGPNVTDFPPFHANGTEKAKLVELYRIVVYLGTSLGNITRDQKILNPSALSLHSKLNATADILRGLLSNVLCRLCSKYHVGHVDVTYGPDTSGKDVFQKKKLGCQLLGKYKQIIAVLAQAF

TF-1 cell proliferation, fold change of EC50 against wild-type LIF [fold] | TF-1 cell proliferation activity against wild-type LIF [fold] | Substance
3 |  | LIF 2E (R37E and H38E) (from UniProt P15018 23-202) (ligand)
 | 1 | LIF with truncation of the N-terminal region (from UniProt P15018 23-202) (ligand)
4 |  | LIF 3E (R37E, H38E and H41E) (from UniProt P15018 23-202) (ligand)
